Experimental data published in US7589065B2, “Catalysis of the cis/trans-isomerisation of secondary amide peptide compounds” (Max-Planck Gesellschaft zur Forderung der Wissenschaften, …, priority 2001, dated 2009).

Assay: 2D 1H NMR exchange (NOESY) measurement of cis/trans isomerisation in the pentapeptide
Format: biochemical
Conditions: 20 μM addition; for relative intensity of the cross signal of the peptide bond Ala-Tyr / relative intensity of the cross signal of the peptide bond Tyr-Ala: 25 mM pentapeptide, pH 7.1, 278° K; for relative intensity of the cross signal of the peptide bond Ala-Tyr: no addition 3.50 ± 0.51; for relative intensity of the cross signal of the peptide bond Tyr-Ala: no addition 3.89 ± 0.32
Source text: A further possibility, only described in 1998, is the determination of the cis/trans isomerisation rate of secondary amide peptide bonds containing aromatic amino acids by means of 2D 1H NMR exchange experiments (Scherer G. et al., 1998, JACS 120:5568-5574). In Example 8, this NMR method is used to determine a catalytic acceleration of the cis/trans isomerisation of the peptide bonds Ala-Tyr and Tyr-Ala within the pentapeptide Ala-Ala-Tyr-Ala-Ala. The acceleration is accomplished by catalytic amounts of DnaK.
NMR Device: Bruker DRX-500, Equipped with z-gradient
• FIG. 8: The alanine methyl region from the two-dimensional exchange 1H-NMR spectrum of 25 mM Ala-Ala-Tyr-Ala-Ala in 25 mM Tris, 11 mM MgCl2, 50 mM KCl, 9:1H2O:D2O, pH 7.1 at 278° K. The mixing time of the phase-sensitive NOESY was 330 ms. Each FID had 184 scans. The amount of data from t1×t2=512×8192 points covered a spectral range of 5501 Hz×5482 Hz. The correction of the base line was carried out by adjustment with a polynom of fifth order in the F2 dimension. […] The experiment was carried out under identical conditions as described above. In addition, 20 μM DnaK was contained in the measuring solution.
In a further analysis of the method of the two-dimensional NOESY experiment illustrated in Example 8, the cross signals can be quantified by means of common mathematical techniques.

B1: trigger factor (TF): peptidyl-prolyl cis/trans isomerase (Stoller G. et al., 1995) (protein)
chain: MQVSVETTQGLGRRVTITIAADSIETAVKSELVNVAKKVRIDGFRKGKVPMNIVAQRYGASVRQDVLGDLMSRNFIDAIIKEKINPAGAPTYVPGEYKLGEDFTYSVEFEVYPEVELQGLEAIEVEKPIVEVTDADVDGMLDTLRKQQATWKEKDGAVEAEDRVTIDFTGSVDGEEFEGGKASDFVLAMGQGRMIPGFEDGIKGHKAGEEFTIDVTFPEEYHAENLKGKAAKFAINLKKVEERELPELTAEFIKRFGVEDGSVEGLRAEVRKNMERELKSAIRNRVKSQAIEGLVKANDIDVPAALIDSEIDVLRRQAAQRFGGNEKQALELPRELFEEQAKRRVVVGLLLGEVIRTNELKADEERVKGLIEEMASAYEDPKEVIEFYSKNKELMDNMRNVALEEQAVEAVLAKAKVTEKETTFNELMNQQA
  catalysis of the cis/trans isomerisation of the Ala-Tyr and Tyr-Ala peptide bonds (in words): neither catalyse
  relative intensity of the cross signal of the peptide bond Ala-Tyr: 3.83 ± 1.07
  relative intensity of the cross signal of the peptide bond Tyr-Ala: 4.42 ± 0.58

B2: Parvulin: peptidyl-prolyl cis/trans isomerase (Rahfeld et al., 1994) (protein)
chain: AKTAAALHILVKEEKLALDLLEQIKNGADFGKLAKKHSICPSGKRGGDLGEFRQGQMVPAFDKVVFSCPVLEPTGPLHTQFGYHIIKVLYRN
  catalysis of the cis/trans isomerisation of the Ala-Tyr and Tyr-Ala peptide bonds (in words): neither catalyse
  relative intensity of the cross signal of the peptide bond Ala-Tyr: 2.90 ± 0.96
  relative intensity of the cross signal of the peptide bond Tyr-Ala: 3.11 ± 0.46

B3: fragment of the TF: fragment of the trigger factor (Stoller G. et al., 1996) (protein)
chain: RKQQATWKEKDGAVEAEDRVTIDFTGSVDGEEFEGGKASDFVLAMGQGRMIPGFEDGIKGHKAGEEFTIDVTFPEEYHAENLKGKAAKFAINLKKVEERELPELTAE
  catalysis of the cis/trans isomerisation of the Ala-Tyr and Tyr-Ala peptide bonds (in words): neither catalyse
  relative intensity of the cross signal of the peptide bond Ala-Tyr: 3.96 ± 0.77
  relative intensity of the cross signal of the peptide bond Tyr-Ala: 3.22 ± 0.58
